# System: CCCCC(=O)Oc1ccc([N+](=O)[O-])cc1
# Experiment: purified protein
# Conditions: pH 7.5, 14.5 mM Tris-HCl, 0.75% glycerol, 0.5% Triton X, 1.1 µM enzyme
substance,measurement,value
F. solani cutinase (Fusarium vanettenii),Km,1.48 ± 0.56 µM
same,kcat/Km,10200 ± 6670 M⁻¹ s⁻¹

# From article PMC2796240
